In the supplement of paper PMC10126150:
± gives the standard deviation of the averaged measurements.

Test system: ATP
Assay: switch fluorescence ratio, 500 uM ATP over buffer (Cy3 cluster intensity, sum of 5 cycles each) (fold (ratio)); higher = stronger signal-on switching upon ATP binding; sequences stand for … in TCGTCGGCAGCGTCAGATGTGTATAAGAGACAGTTTTTTTTTTTTTTTTTTTTTTTTT…TC
Conditions: aptamer strand: ATP DNA aptamer (quencher-CACCTGGGGGAGTATTGCGGAGGAAGG + anchor), 100 nM annealed; ATP concentration: 500 uM
Method in brief: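 Clusters carrying Cy3-labelled switching strands on a modified Illumina MiSeq flow-cell were annealed to 100 nM quencher-labelled ATP aptamer and imaged in selection buffer. They were imaged again after 15 min with 500 uM ATP at 22 °C, over five buffer/ATP cycles with NaOH stripping and re-annealing in between. For each cluster, the fluorescence ratio is the summed Cy3 intensity of the target cycles divided by that of the buffer cycles, averaged per switch-domain sequence. Clusters outside 100-1000 RFU were left out.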
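Further: ATP exposure 15 min at 22 °C before imaging.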

TTATCAAAGC and TTATCAAAGG are within error of each other in switch fluorescence ratio: 0.992 ± 0.033 for the first, 0.986 ± 0.014 for the second.

TTATCAACAC and TTATCAGCAC are within error of each other in switch fluorescence ratio: 1.09 ± 0.13 for the first, 1.136 ± 0.0044 for the second.

First: TTATCATATA
Second: TTATCCAAAG
The switch fluorescence ratio of the first is higher: 1.06 ± 0.057 for the first, 0.966 ± 0.016 for the second.

TTATCCGGAT and TTATCCTTTA are within error of each other in switch fluorescence ratio: 0.933 ± 0.11 for the first, 1.02 ± 0.012 for the second.

TTATCGAATT and TTATCGTCGG are within error of each other in switch fluorescence ratio: 1 ± 0.025 for the first, 0.978 ± 0.04 for the second.

Going from TTATCTCACT to TTATCTGGGC, the switch fluorescence ratio falls from 1.06 ± 0.014 to 0.9757 ± 0.0037.

TTATCTGTAA and TTATCTTGGT are within error of each other in switch fluorescence ratio: 1.01 ± 0.051 for the first, 1 ± 0.015 for the second.

TTATCTTGTT and TTATGAAATT are within error of each other in switch fluorescence ratio: 0.988 ± 0.03 for the first, 1.01 ± 0.04 for the second.

TTATGAGCGT and TTATGAGTCG are within error of each other in switch fluorescence ratio: 1 ± 0.014 for the first, 0.979 ± 0.032 for the second.

TTATGATAGC and TTATGCTTCT are within error of each other in switch fluorescence ratio: 0.965 ± 0.044 for the first, 1.01 ± 0.053 for the second.

TTATGGACGT and TTATGGCCTA are the same in switch fluorescence ratio: 1.01 ± 0.02 for the first, 1.01 ± 0.017 for the second.

TTATGGCTAT and TTATGGGTCT are within error of each other in switch fluorescence ratio: 0.991 ± 0.031 for the first, 1 ± 0.036 for the second.

TTATGGGTTT and TTATGGTAGC are within error of each other in switch fluorescence ratio: 1 ± 0.036 for the first, 0.995 ± 0.015 for the second.

TTATGGTTAG and TTATGGTTAT are within error of each other in switch fluorescence ratio: 1.008 ± 0.0092 for the first, 1.03 ± 0.015 for the second.

Going from TTATGGTTCG to TTATGTAGTA, the switch fluorescence ratio rises from 0.954 ± 0.013 to 1 ± 0.019.

TTATGTTTAG and TTATTAAATA are within error of each other in switch fluorescence ratio: 0.976 ± 0.045 for the first, 0.98 ± 0.016 for the second.

TTATTAAGTT and TTATTAATTT are within error of each other in switch fluorescence ratio: 1.01 ± 0.027 for the first, 1 ± 0.03 for the second.

Compared with TTATTACGGA, TTATTATATG is lower in switch fluorescence ratio: 1.03 ± 0.013 for the first, 0.971 ± 0.022 for the second.

TTATTATCAG and TTATTCAGTC are within error of each other in switch fluorescence ratio: 1.013 ± 0.0021 for the first, 0.98 ± 0.046 for the second.

Going from TTATTCATTT to TTATTCCCGA, the switch fluorescence ratio falls from 1.001 ± 0.01 to 0.9791 ± 0.0095.

TTATTCCCGT and TTATTCCTAT are within error of each other in switch fluorescence ratio: 0.985 ± 0.064 for the first, 1.02 ± 0.021 for the second.

TTATTCGGCT and TTATTCTCGG are within error of each other in switch fluorescence ratio: 1.08 ± 0.05 for the first, 1.04 ± 0.068 for the second.

TTATTGAAGC and TTATTGAGGT are within error of each other in switch fluorescence ratio: 0.983 ± 0.028 for the first, 0.981 ± 0.012 for the second.

TTATTGATGG and TTATTGGACT are within error of each other in switch fluorescence ratio: 0.99 ± 0.019 for the first, 1.02 ± 0.019 for the second.

TTATTGGAGG and TTATTGGCTT are within error of each other in switch fluorescence ratio: 0.9918 ± 0.0077 for the first, 0.9895 ± 0.0037 for the second.

TTATTGGGAT and TTATTGGGGG are within error of each other in switch fluorescence ratio: 0.981 ± 0.033 for the first, 0.982 ± 0.037 for the second.

First: TTATTGGGTT
Second: TTATTGGTA
The switch fluorescence ratio of the first is lower: 0.995 ± 0.017 for the first, 1.04 ± 0.016 for the second.

TTATTGTACT and TTATTGTTTA are within error of each other in switch fluorescence ratio: 1.008 ± 0.0073 for the first, 0.99 ± 0.029 for the second.

First: TTATTTAAGG
Second: TTATTTAGGC
The switch fluorescence ratio of the first is lower: 1.01 ± 0.031 for the first, 1.12 ± 0.055 for the second.

TTATTTCGCG and TTATTTCGGG are within error of each other in switch fluorescence ratio: 0.986 ± 0.041 for the first, 0.973 ± 0.013 for the second.

TTATTTGCAT and TTATTTGGGT are within error of each other in switch fluorescence ratio: 0.994 ± 0.013 for the first, 1 ± 0.021 for the second.

Going from TTATTTGTAC to TTATTTGTCA, the switch fluorescence ratio falls from 1.052 ± 0.0021 to 0.989 ± 0.013.

TTATTTTAGT and TTATTTTCGG are within error of each other in switch fluorescence ratio: 1 ± 0.017 for the first, 0.994 ± 0.019 for the second.

TTATTTTTTT and TTCAAAGATG are within error of each other in switch fluorescence ratio: 1 ± 0.033 for the first, 0.9743 ± 0.0021 for the second.

TTCAAGGCGG and TTCAAGGGCA are the same in switch fluorescence ratio: 1.01 ± 0.014 for the first, 1.01 ± 0.027 for the second.

Going from TTCAAGGGTG to TTCAAGTTTT, the switch fluorescence ratio falls from 1.11 ± 0.024 to 1.02 ± 0.063.

TTCAATCCCG and TTCAATGTCG are within error of each other in switch fluorescence ratio: 0.991 ± 0.069 for the first, 1.05 ± 0.024 for the second.

TTCAATTCCG and TTCAATTGGA are within error of each other in switch fluorescence ratio: 1.03 ± 0.092 for the first, 1 ± 0.042 for the second.

TTCACCACTT and TTCACCCGGT are within error of each other in switch fluorescence ratio: 1.01 ± 0.025 for the first, 1.11 ± 0.12 for the second.

TTCACCCTTT and TTCACGGCCT are within error of each other in switch fluorescence ratio: 1.02 ± 0.049 for the first, 1.03 ± 0.018 for the second.

TTCACGGTTG and TTCACGTTTT are within error of each other in switch fluorescence ratio: 1.04 ± 0.061 for the first, 1.03 ± 0.087 for the second.

TTCAGAAAGA and TTCAGACTAT are within error of each other in switch fluorescence ratio: 0.998 ± 0.023 for the first, 1.01 ± 0.027 for the second.

TTCAGAGCTT and TTCAGAGGAT are within error of each other in switch fluorescence ratio: 1 ± 0.035 for the first, 1.02 ± 0.048 for the second.

TTCAGAGTTT and TTCAGCGGGA are within error of each other in switch fluorescence ratio: 0.978 ± 0.014 for the first, 0.992 ± 0.019 for the second.

Going from TTCAGGAGGA to TTCAGGGATG, the switch fluorescence ratio falls from 1.03 ± 0.011 to 0.9822 ± 0.0028.

TTCAGGTCGT and TTCAGGTTAG are within error of each other in switch fluorescence ratio: 0.992 ± 0.052 for the first, 1.01 ± 0.027 for the second.

TTCAGGTTGG and TTCAGTAGAG are within error of each other in switch fluorescence ratio: 1.08 ± 0.082 for the first, 1.03 ± 0.024 for the second.

TTCAGTGATT and TTCAGTGTGG are within error of each other in switch fluorescence ratio: 1 ± 0.022 for the first, 0.971 ± 0.022 for the second.

TTCAGTTCGG and TTCAGTTGCA are within error of each other in switch fluorescence ratio: 0.9942 ± 0.0016 for the first, 1.01 ± 0.024 for the second.

TTCAGTTTGG and TTCATACGGG are within error of each other in switch fluorescence ratio: 1.01 ± 0.038 for the first, 1.03 ± 0.04 for the second.
